In the domain aggregation screens of Martell et al. (2025):

Test: soluble fraction after stress (log2 fold change); higher = more stays soluble; pooled small domains, quantitative proteomics
Conditions: stress: 50 degC
Summary of the method: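 The measure of aggregation propensity here is the base-two logarithm of the fold change in the soluble amount of each protein after stress. A higher value means more of that protein stays in solution. Stress was applied at 50°C to pooled libraries of small protein domains, read out by high-throughput quantitative proteomics.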

Row | Sequence | soluble fraction (log2)
1 | HMYIDANTALLAKRIQAKNGFLPLSDKSTAEEIYAEFGISKKAFKKALGALYKERLVRIGDEGVVWV | -1.79
2 | HMTYQTVRYGSTGSAVRQLQSALNQKGYQLSEDGIFGAKTRAAVRDYQKKNGLLLDGIAGSQTWNHLMS | 0.224
3 | HMLDIPEVGQAVQVRGRLGTVFSVAPYDGREGRLHLVTVDYLDDARPPENDEILWEIESGARILG | -0.523
4 | HMALPDWLDPEAWAAWKRHRKAIRKPLTEDAVALSIRELAKLRDEGYGPTSVIENAILKGWQGLYPPK | -0.133
5 | HMGPEAFPVPYVVDIELDRAIYVIEQSGFIVGQKLEANDNNVPRGFVISQNPPAGTKLGPESIVDLVVSS | -0.519
6 | HMTKAILTANDVRNGDIVFWTADQRWSTSIDDAAIGYGKDDTDQLADAGKQAEAANTVVGAYLIALR | -0.276
7 | HMKEVVKVTITPSEKLKSQYPDALVSIDGKFYDLGILNNPVEFYMDKDHKISIIWSTAELVESFRI | -0.00922
8 | HMRRQRNPEIFDQLVNKFHFTFTQTQQLKQLIKRWHMLFPGKSLKSAIQGYKSAKEILTYINDSLDVVE | 0.124
9 | HMVQQTEEDVIRDMYVEGKIFTIGEEVTDTYTGVTGKIIRRGTNYVTFMSEDGETYKKWLYEIELA | -1
10 | HMPKIPRLTLTETAGIMGVSQRALALAIQQGMYSWAQALPGRNKKRPIYFINAITFAKAQGIDLEEYK | -1.11
11 | HMDAPRFAAGDAVRVAGLVSKPQHNGRAGSVLSYDPVSLRYIVKVDGEDEPLKLKPENVLMPA | 0.136
12 | HMHAGQIISQKIKESGISISHVAKHLKVQRATLYNLFEREVWPAHRLRTIEALLHIDLSDLYP | -1.62
13 | HMTPQVALNDTETAIYEKMKQEKQMLLGELRAQFDISNKLWDTSLKTLTKNQLLAVSKEDDLLFVKL | 0.113
14 | HMQMEDTDALLQVAKEVVAENQDTVEAYLGGREKAFASLIGAAMKKTRGKANPKVIRQLILDLIQ | 0.254
15 | HMAEKEYYYATDALNLRQGPGMEHTVKGEVVLGERVALLGLEGKWAKIQNAQGTTGYVFSAYLAPS | 0.0931
16 | HMENEDMTGDIRVIDYIRNVAEYIQTTKGQASASQMLDRFLFPPELQYTPLDKLSGGEQRRLYLLKVLMEA | 0.0342
17 | HMKNNYQYIVDQIKQLILDGELIVGDRLPSERDLSEMYQVSRASVREALKALETIGLLESRHGGGNYIVNH | -0.671
18 | HMADLVYLRKRLQDAIAQLPEDMRTAYTLFQIARRSIREIAELTGASESLVKVRIHRAKGKLQELLEDLR | -1.87
19 | HMGVPELHKGEIVQAVVEKVLGEGLLRVNLKGMTVEAATSLRLNPGQQLLLRSEGIENGRQVLR | 0.00868
20 | HMPKMDGLTVMEQVNQDHFVNKRPYFIVITAVGQEKITEDAFNKGANYYVMKPFNNNMLLERIKSVRK | 0.294
21 | HMNDIDKFVAALVDQDTMAGTNRAFDENDIQTMKNMSSIEDVKQYAVANGLSSGKVNNALISAGL | 0.156
22 | HMKTILEKDQRLAKYISYLIKRKRLSPEQVIEHLKTDDHGYEKYPKSINTIYAAIDKGLIPSVTRQDM | -0.0163
23 | HMATTAGIEKYLGSGLIKGIGPIYAKKIVRKFKEDTIRIIDEEPDRLLEVEGIGQKRLEIIKQAWQQQKE | -0.391
24 | HMERAPAYPDGLTQREVEVLRLIASGKTDREIAEELFIGVRTVSTHVGNILNKTNSANRTEAASYANQQGL | -0.191
25 | HMLIRKGVVSFFNDAKGYGFIKDLVTQESAFVHVNSLSETIKEHDKVTFEVEMGHKGANAVNVKLVK | -1.03
26 | HMSSPTAKATGSSVNIRKSASTGAAVLKRVEKGTVLEAVSISDGWVKVKYSGVTGYVSADYVKVSGL | -0.354
27 | HMSRKERERSQHRRDILAAGEKIFAQKGYFNATIEEIAREAEFSVGTIYNFFSNKETLYQEIIRSI | -0.298
28 | HMANLLNLREIPVANIRPELTMFLIPGENITQAFQTIRDQVVFTNKRLIVANVQGLTGKKVSYTSYPY | -0.374

Row | Sequence | soluble fraction (log2)
29 | HMGNLASRVAEQLLDKMRGDSLVPGTRLPSEIAMAKHFGVSRTVMREAIARLKADGLLETRRGSGAFVLAT | -0.664
30 | HMSLHSITIPQEFIGAVIGPGGKVIQEIQKQTGTTITITEKDNKGYVDIFGEDKGALDSALARIKEIVAIP | 0.182
31 | HMSAAELFEERQRQYLRGRKSTKNIADNHGTIILRAGETITDQAIDKAKVAGKLVELVMNNE | 0.142
32 | HMTEDIAVRILEFLEDNNGFYALNDKTPSEKIHDLFGVSKKKFKIALGGLYKQRLITVSDAGVTLVK | -1.29
33 | HMAAVPQPQRSETIVYIGGRKFYVHTVQAGETLYSIARLYGVSEQTLVANNPTMADVVKADQNVRIPVPA | -0.272
34 | HMLSDEEKMAALNEQARQRGFTISPGVLPYLITHYQRDMHSLSMILDALDRYSLQTKRTITLPLLHDLLQQ | -1.06
35 | HMSETIVFGQQKAINTLSSEAGLSSAELNNYLKKRYQRPLFQLTVSEGADLIQGFQDGTLTKASITQYVSQ | -0.0548
36 | HMKVTGITDDILQRLKQQKGYLMLSDKSSPDEIYAAFGVSKKVFKQAIGTLFKQRQIIIEEQGIRLAN | -0.39
37 | HMSLTPSQDANRSAILDAARDLFARYGFKKTTMEDIAMALRKGKSSLYYYFKNKEDIFQAVIDS | -1.35
38 | HMGSLNDQVMKYIDALPSAFNKRELDFLIERGVKEFALNGEYLEKAIINEYKLTADTYHRER | 0.0641
39 | HMLTGESDNVEKSINKLGTENLALADQTNMGFKGTFINSGHGMAIVVKTGMQTELGKIASMIQIA | 0.21
40 | HMGWEPTPVLVAARDISGGTVLDQDMLRVEAIPSRLVTPSIVRSDLLASVQDAKLLLPMKQGDLLNFNMLQ | -0.064
41 | HMEKDEYIFVDIDGAVFNPGVYKLIAGSRVIDAINLAGGLKEKAFTQNLNKARKLVDGEKIYIYLEGDEE | -0.585
42 | HMFSGVQLGQAISEAIKRKNVSQKEVADHFGVKQPSVSGWIKNGRIDKKHLDKLIDYFSDVVTPSHFGIE | 0.246
43 | HMTPFLVRVDISDLNIRTGAGTNYSRTGQYTGKGIFTILEVKSGQGSDAGWGRLKSGAGWISLDYTTR | -2.82
44 | HMEATVGSRVRLARIGLTLTQKQLAQAVGVSANHLAMVERGSKHASEDLLQRIATATHTTYEWLMGTSEHQ | -0.845
45 | HMSSKTKVEDLGLSTRTLNALIGGSIKTAGGLTRKSESDLLSLDGLGEKGITEIKEALENIGLSLK | 0.215
46 | HMKKDDLKQINGIGTTIEKKLNEIDIYNFYQISNLSKEDIETISEKIKTFPGKIERDNWVGQAQELL | 0.0191
47 | HMETGEDSLRRYFNSLPGSASKREILEDNPTVSQRTTERILQKLQAEGFIEKVGAARATRYRKVKQ | 0.209
48 | HMYELSDTEWKIIEQVGLGASNKEIAASLHFSEGTIRNYLSVILDKLSLRDRTQLAILYVKMN | -0.058
49 | HMVQDDDPNSVAKFIDQVIESNPEQVEQYRSGKEKVFNFFLGQTMRLSKGKANPDLVSELLKEKLS | 0.0395
50 | HMSSVHTMEVKSTTQIKVLDENKNLSSYYSMKNPVSFNYRLFFLNQDELKKLQEDLKTNNDIQSIDIKYA | -0.753
51 | HMYSIKEFSFEVTTPGQRLDLFLSEELIGQTRSSIQNLILKKYVTVNGQVSKASYKVKTGEFISVKIPV | -3.16
52 | HMSPLDSHLGRRIALRRQQLNTSAADLEKAISMVPGSVARFEAGRQSLNATQLFTLSRALDVPVLYFFEG | -0.534
53 | HMKGWPDREQAEKIWQQGIDYAIEHHTMSPQIVKEYIFHTQGIARSAALIAARLPDMDTEKAYVLGLLHD | -0.214
54 | HMTEDTPIIVERVVADIDENVVAIVRKFKDAFKSITAQREIKKKLRSILWVNYQIKDQEVFDKAYQYIEMY | 0.0204
55 | HMLAPLAEMRGDTLDRLEKAVLELFSSRDFHEVSLQDVARRANVSLQTIYKYFGSKEALVYTMLDTLLGR | -0.661
